Experiments:
Test in all cases: flow cytometry on transiently transfected cells
[1] = target: T1, DR6 on transiently transfected cells (UniProt O75509 42-655, limits assumed)
T1 construct: whole, on cells
T1 sequence (looked up): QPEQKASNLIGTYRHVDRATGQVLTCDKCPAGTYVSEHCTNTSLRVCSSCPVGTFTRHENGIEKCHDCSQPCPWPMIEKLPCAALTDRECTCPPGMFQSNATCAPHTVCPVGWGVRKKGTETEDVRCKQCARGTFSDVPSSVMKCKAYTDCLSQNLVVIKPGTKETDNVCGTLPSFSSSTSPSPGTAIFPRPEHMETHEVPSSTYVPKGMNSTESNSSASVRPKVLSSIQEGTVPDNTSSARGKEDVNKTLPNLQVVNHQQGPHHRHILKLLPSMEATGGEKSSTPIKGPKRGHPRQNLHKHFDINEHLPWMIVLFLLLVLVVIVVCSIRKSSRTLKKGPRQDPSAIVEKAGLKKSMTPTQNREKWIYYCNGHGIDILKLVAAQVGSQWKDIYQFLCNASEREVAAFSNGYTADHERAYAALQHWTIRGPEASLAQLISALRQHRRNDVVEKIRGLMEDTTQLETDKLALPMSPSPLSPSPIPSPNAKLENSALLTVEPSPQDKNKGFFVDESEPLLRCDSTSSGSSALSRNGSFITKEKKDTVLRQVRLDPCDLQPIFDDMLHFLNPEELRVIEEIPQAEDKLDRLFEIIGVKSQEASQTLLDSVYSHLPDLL
Method: (§1) One million cells, in 0.1 ml of FACS buffer (PBS, 0.1% BSA, 0.1% NaN₃), were incubated with 0.1-1 microgram of protein or antibody at RT for 15 min. The cells were washed with 3 ml of FACS buffer, reacted with biotinylated primary antibody, and stained with PE-conjugated secondary antibody at RT for 15 min. Cells were then washed again, resuspended in 0.5 microgram/ml of propidium iodide, and live cells were gated and analyzed on a FACScan using the CellQuest software (BD Biosciences).

[2] = target: T2, RANK on transiently transfected cells (UniProt Q9Y6Q6 30-616, limits assumed)
T2 construct: whole, on cells
T2 sequence (looked up): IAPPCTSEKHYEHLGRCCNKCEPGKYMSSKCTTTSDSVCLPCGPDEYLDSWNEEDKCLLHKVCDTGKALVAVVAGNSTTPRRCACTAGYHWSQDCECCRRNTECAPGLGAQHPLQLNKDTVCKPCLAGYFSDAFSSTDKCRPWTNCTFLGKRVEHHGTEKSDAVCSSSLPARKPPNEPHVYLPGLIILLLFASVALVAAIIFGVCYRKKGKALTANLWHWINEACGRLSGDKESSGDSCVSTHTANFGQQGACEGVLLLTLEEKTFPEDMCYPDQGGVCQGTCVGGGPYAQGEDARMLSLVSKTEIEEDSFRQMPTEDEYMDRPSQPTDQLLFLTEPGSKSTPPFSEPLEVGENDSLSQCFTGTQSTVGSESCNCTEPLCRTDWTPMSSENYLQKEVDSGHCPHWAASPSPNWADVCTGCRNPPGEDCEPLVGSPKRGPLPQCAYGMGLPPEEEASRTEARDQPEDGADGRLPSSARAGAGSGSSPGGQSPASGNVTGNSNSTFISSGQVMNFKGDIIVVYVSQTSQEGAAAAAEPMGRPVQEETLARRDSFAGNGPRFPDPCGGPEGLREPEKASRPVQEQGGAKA
Method: as §1

[3] = target: T3, CD30 on transiently transfected cells (UniProt P28908 19-595, limits assumed)
T3 construct: whole, on cells
T3 sequence (looked up): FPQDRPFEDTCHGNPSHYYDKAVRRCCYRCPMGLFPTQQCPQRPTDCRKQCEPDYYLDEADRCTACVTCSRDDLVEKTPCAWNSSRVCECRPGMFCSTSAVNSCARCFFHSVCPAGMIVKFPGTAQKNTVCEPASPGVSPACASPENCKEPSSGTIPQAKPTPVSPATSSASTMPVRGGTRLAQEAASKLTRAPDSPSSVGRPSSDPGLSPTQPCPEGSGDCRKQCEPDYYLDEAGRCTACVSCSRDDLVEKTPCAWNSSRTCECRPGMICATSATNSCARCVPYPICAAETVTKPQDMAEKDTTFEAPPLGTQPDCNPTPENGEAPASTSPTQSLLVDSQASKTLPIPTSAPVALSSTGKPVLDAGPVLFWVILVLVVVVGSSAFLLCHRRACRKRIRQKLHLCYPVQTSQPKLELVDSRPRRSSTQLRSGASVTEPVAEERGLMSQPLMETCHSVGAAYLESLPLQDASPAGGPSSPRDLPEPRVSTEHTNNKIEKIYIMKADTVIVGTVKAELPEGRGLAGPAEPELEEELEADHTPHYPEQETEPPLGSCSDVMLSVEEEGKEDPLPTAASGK
Method: as §1

[4] = target: T4, DR4 on transiently transfected cells (UniProt O00220 24-468, limits assumed)
T4 construct: whole, on cells
T4 sequence (looked up): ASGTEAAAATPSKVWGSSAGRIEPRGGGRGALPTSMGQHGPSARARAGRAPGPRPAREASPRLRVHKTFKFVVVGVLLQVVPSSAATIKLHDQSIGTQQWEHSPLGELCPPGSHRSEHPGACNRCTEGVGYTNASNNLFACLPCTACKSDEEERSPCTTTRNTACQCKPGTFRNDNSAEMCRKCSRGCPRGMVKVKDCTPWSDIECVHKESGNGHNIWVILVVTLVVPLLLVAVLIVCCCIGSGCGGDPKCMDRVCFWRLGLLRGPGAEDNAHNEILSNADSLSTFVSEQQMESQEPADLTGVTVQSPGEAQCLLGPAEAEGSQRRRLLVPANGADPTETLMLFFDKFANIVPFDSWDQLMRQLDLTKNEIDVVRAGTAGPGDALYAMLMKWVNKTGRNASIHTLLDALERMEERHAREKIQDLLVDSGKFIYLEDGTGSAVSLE
Method: as §1

[5] = target: T5, LTβR on transiently transfected cells (UniProt P36941 31-435, limits assumed)
T5 construct: whole, on cells
T5 sequence (P36941 31-435 limits assumed): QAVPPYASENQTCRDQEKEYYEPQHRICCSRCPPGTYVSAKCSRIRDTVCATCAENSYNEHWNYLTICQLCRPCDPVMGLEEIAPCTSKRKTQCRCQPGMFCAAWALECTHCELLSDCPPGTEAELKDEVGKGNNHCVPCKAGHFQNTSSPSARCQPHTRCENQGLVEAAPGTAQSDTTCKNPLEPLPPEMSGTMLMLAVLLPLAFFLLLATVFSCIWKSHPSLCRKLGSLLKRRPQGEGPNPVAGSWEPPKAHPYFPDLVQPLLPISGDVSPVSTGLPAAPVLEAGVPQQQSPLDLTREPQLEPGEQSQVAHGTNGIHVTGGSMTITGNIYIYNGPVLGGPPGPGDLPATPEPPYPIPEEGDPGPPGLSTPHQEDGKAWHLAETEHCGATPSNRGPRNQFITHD
Method: as §1

Measured: binding result

B1: FLAG-tagged soluble form of TNF-gamma-beta (aa 72-251) (ligand, human, UniProt O95150 72-251, looked up)
chain: LKGQEFAPSHQQVYAPLRADGDKPRAHLTVVRQTPTQHFKNQFPALHWEHELGLAFTKNRMNYTNKFLLIPESGDYFIYSQVTFRGMTSECSEIRQAGRPNKPDSITVVITKVTDSYPEPTQLLMGTKSVCEVGSNWFQPIYLGAMFSLQEGDKLMVNVSDISLVDYTKEDKTFFGAFLL
notes: also called FLAG-TL1β; FLAG-TNF-gamma-beta; not shown: FLAG tag of vector pFLAGCMV1
no binding: all assays above

Reference: US20030170203A1 (Human Genome Sciences, published 2003)
